Numbering of substitutions follows the chain as printed.

For test [1], the target named is T1, Mouse NRP-1 His (mouse, UniProt P97333 22-856).
T1 construct: Recombinant monomeric protein; also called mNRP-1; not shown: His tag
Put plainly: BLI ForteBio, IgG1 N297A on AHQ sensor, 100 nM monomeric antigen, 1:1 fit.

Test [2] addresses T2, Cyno NRP-1 His (cynomolgus monkey, UniProt O14786 22-856 (human entry), limits assumed).
T2 construct: Recombinant monomeric protein; also called cynomolgus monkey NRP-1-His; cNRP-1; not shown: His tag
T2 chain: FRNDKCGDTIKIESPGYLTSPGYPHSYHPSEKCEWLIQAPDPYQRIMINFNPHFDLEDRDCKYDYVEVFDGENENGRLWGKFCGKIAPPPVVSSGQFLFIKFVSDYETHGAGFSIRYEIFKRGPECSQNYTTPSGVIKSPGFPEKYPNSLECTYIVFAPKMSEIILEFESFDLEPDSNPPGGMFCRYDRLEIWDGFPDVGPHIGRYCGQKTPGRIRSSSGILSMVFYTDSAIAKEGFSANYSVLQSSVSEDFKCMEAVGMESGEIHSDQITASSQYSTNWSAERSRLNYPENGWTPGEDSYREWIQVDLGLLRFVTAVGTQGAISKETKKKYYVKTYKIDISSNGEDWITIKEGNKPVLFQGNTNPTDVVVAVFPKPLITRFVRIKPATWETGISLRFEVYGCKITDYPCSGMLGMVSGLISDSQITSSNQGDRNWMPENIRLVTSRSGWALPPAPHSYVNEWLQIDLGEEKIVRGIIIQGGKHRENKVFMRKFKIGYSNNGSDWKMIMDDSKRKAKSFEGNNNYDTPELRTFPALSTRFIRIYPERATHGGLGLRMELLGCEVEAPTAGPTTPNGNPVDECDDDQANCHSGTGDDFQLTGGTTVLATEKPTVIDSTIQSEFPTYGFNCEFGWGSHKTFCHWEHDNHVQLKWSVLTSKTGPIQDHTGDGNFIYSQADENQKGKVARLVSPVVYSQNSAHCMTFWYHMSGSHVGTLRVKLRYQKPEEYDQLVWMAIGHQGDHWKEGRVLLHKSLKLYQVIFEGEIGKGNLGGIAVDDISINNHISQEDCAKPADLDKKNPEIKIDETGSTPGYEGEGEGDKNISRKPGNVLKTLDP
The description is as above.

For test [3], the target named is T3, Human NRP-1 His (human, UniProt O14786 22-856).
T3 construct: Recombinant monomeric protein; Biotinylated in the MSD-SET assay; also called hNRP-1; not shown: His tag
Described as above.

Test [4] deals with T4, recombinant human NRP-1 (human, UniProt O14786 22-856, limits assumed).
T4 construct: also called biotinylated human NRP-1
The test can be described thus: blocking ELISA: SEMA3A coated, biotinylated human NRP-1 preincubated with IgG1 antibody; competitor SEMA3A. Background: An ELISA detects its analyte on a solid surface through an enzyme-linked reagent.

Test [5] addresses T3, Human NRP-1 His. Put plainly: MSD-SET solution equilibrium titration, Fab.
Target sequence in this assay (O14786 22-856 V179A limits assumed): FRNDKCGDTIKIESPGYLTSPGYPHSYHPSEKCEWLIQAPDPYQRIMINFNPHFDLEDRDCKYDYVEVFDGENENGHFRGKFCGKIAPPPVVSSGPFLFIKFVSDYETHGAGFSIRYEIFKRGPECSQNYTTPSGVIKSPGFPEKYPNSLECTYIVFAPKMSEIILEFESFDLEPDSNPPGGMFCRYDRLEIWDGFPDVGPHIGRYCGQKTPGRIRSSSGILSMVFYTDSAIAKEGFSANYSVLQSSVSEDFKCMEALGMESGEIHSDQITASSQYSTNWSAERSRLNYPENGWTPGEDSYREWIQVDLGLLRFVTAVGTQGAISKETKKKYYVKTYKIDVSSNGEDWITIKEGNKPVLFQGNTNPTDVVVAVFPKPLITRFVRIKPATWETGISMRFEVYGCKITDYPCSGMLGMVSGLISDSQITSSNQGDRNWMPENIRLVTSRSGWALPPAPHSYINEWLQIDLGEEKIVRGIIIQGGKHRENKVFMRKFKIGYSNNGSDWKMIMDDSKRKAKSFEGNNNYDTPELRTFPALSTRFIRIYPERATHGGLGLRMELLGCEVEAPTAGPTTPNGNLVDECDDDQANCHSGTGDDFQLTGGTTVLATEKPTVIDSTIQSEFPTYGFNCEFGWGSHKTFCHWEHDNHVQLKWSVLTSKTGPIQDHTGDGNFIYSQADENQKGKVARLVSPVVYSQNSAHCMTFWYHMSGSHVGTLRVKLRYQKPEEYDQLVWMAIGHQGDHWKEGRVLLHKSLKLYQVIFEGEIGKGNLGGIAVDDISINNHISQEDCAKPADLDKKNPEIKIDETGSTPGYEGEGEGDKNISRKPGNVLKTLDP

T4 sequence (O14786 22-856 V179A limits assumed): as above

B1: MAB15 (antibody, V domains shown)
VH: QVQLQQWGAGLLKPSETLSLTCAVYGGSFVKYYWSWIRQPPGKGLEWIGDIWHSGMTNYNPSLKSRVTISVDTSKNQFSLKLSSVTAADTAVYYCARGPGYDSSGYSRRFDPWGQGTLVTVSS
VL: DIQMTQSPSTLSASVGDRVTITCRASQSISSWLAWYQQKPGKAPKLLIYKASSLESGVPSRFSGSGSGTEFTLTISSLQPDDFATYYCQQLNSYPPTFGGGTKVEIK
Usually Kd stands for the concentration at which binding is half-saturated. Read a low Kd as a tighter complex. In the case of B1, the Kd in test [1] came to 54.1 nM; in test [2], 9.2 nM; in test [3] it was 0.851 nM.

B2: MAB5 (antibody, V domains shown)
VH: QVQLVQSGAEVKKPGASVKVSCKASGYTFTSYYMHWVRQAPGQGLEWMGIINPQGGDTSYAQKFQGRVTMTRDTSTSTVYMELSSLRSEDTAVYYCARDRGMYYASGFGPWGQGTLVTVSS
VL: EIVMTQSPGTLSLSPGERATLSCRASQSVSSSYLAWYQQKPGQAPRLLIYGASNRATGIPDRFSGSGSGTDFTLTISRLEPEDFAVYYCQQLSSFPITFGGGTKVEIK
Broadly, the IC50 is the concentration that gives 50% inhibition. B2: the dissociation constant Kd turned out to be 5.06 nM in test [1], 4.09 nM in test [2] and 3.23 nM in test [3]. Further, the IC50 in test [4] came to 5.9 nM.

B3: MAB5 Fab (Fab, V domains shown)
VH: B2 VH
VL: B2 VL
B3 showed a Kd in test [5] of 0.28 nM.

B4: MAB6 Fab (Fab, V domains shown)
VH: B2 VH with E10K, A40V, G109N
VL: B2 VL
In test [5], B4 yielded a Kd of 0.45 nM.

B5: MAB1 (antibody, V domains shown)
VH: QVQLVQSGAGVKKPGASVKVSCKASGYTFRSYYMLWVRQAPGQGLEWMGIIDPSDGSTSYAQKFQGRVTMTRDTPTSTVYMELSSLRSEDTAVYYCARGARRITGYGMDVWGQGTTVTVSS
VL: DIQMTQSPSSVSASVGDRVTITCRASQGISSWLAWYQQKPGKAPKLLIYAASNLQSGVPSRFSGSGSGTDFTLTISSLQPEDFATYYCQQASVFPFTFGGGTKVEIK
Regarding B5, the Kd is 2.12 nM in test [1], 2.16 nM in test [2] and 1.87 nM in test [3]. For the same molecule, the IC50 in test [4] is 2.9 nM.

B6: MAB3 Fab (Fab, V domains shown)
VH: QAQLVQSGAEVKKPGASVKVSCKASGYTFSRYYMHWVRQAPGQGLEWMGIINPLGGSTLYAQKFQGRVTMTRDTSTSTVYMELSSLRSEDTAVYYCARDLGYYGSGMHAWGQGTLVTVSS
VL: B5 VL with S31R, N53S, S92N, V93L, F94L
The molecule B6 came in with a Kd in test [5] of 0.06 nM.

B7: MAB3 (antibody, V domains shown)
VH: B6 VH
VL: B5 VL with S31R, N53S, S92N, V93L, F94L
On to B7, for which the Kd in test [1] stood at 0.99 nM; in test [2], 1.19 nM; in test [3], 1.08 nM. The IC50 in test [4] worked out at 0.6 nM.

B8: MAB13 (antibody, V domains shown)
VH: QVQLQQWGAGLLKPSETLSLTCAVYGGSFRGYYWEWIRQPPGKGLEWIGEISHSGSTNYNPSLKSRVTISVDTSKNQFSLKLSSVTAADTAVYYCARARPYREPYGMDVWGQGTTVTVSS
VL: B5 VL with M4L, G28D, N53S, A91E, S92L, V93A, F96R
In the case of B8, the Kd in test [1] was 7.42 nM; in test [2], 1.58 nM; in test [3] it was 1.41 nM. Also, the IC50 in test [4] came out at 3.4 nM.

B9: MAB4 Fab (Fab, V domains shown)
VH: B6 VH with A2V, A109V
VL: B5 VL with S31R, N53S, S92N, V93L, F94L
B9 returned a Kd in test [5] of 0.046 nM.

B10: MAB14 (antibody, V domains shown)
VH: B8 VH with I37S, S84P
VL: B5 VL with M4L, G28D, N53S, A91E, S92L, V93A, F96R
For the molecule B10, the values for the Kd in test [1], in test [2] and in test [3] were 5 nM, 1.1 nM and 1.12 nM, respectively. Besides, the IC50 in test [4] stood at 3.1 nM.

B11: MAB2 (antibody, V domains shown)
VH: B5 VH with G10E, T74A, P75S, T118I
VL: B5 VL
As to B11, the Kd in test [1] was 1.94 nM; in test [2], 2.43 nM; in test [3] it was 1.86 nM. For the same molecule, the IC50 in test [4] amounted to 3.1 nM.

B12: MAB14 Fab (Fab, V domains shown)
VH: B8 VH with I37S, S84P
VL: B5 VL with M4L, G28D, N53S, A91E, S92L, V93A, F96R
The molecule B12 showed a Kd in test [5] of 0.28 nM.

B13: MAB4 (antibody, V domains shown)
VH: B6 VH with A2V, A109V
VL: B5 VL with S31R, N53S, S92N, V93L, F94L
Regarding B13, the Kd in test [1] came out at 0.746 nM; in test [2], 0.925 nM; in test [3], 0.851 nM. In addition, in test [4], the IC50 is 3.9 nM.

B14: MAB2 Fab (Fab, V domains shown)
VH: B5 VH with G10E, T74A, P75S, T118I
VL: B5 VL
For the molecule B14, the Kd in test [5] worked out at 0.23 nM.

B15: MAB8 Fab (Fab, V domains shown)
VH: EVQLLESGGGLVQPGGSLRLSCAASGFTFASYAMVWVRQAPGKGLEWVSIISGSGGSTYYADSVKGRFTISRDNSKNTLYLQMNSLRAEDTAVYYCAKDPGYDSSRYYYSNYGMDVWGQGTTVTVSS
VL: DIQMTQSPSSLSASVGDRVTITCRASQSISSYLNWYQQKPGKAPKLLIYGASSLQSGVPSRFSGSGSGTDFTLTISSLQPEDFATYYCQQTYSLYTFGGGTKVEIK
In test [5], B15 had a dissociation constant Kd of 0.096 nM.

B16: MAB10 Fab (Fab, V domains shown)
VH: B15 VH with A30S, Y32V, I50A, S57A
VL: B15 VL
B16: the affinity in test [5], expressed as Kd, was 0.064 nM.

B17: MAB12 Fab (Fab, V domains shown)
VH: B15 VH with A30S, Y32V, I50A, S57A, K65E
VL: B15 VL
B17 displayed a dissociation constant Kd in test [5] of 0.026 nM.

B18: MAB11 Fab (Fab, V domains shown)
VH: B15 VH with A30S, Y32V, I50A, S57A, K65E, N84S
VL: B15 VL
Turning to B18, the Kd in test [5] was determined as 0.021 nM.

B19: MAB9 Fab (Fab, V domains shown)
VH: B15 VH with A30K, S57A
VL: B15 VL
In the case of B19, in test [5], the equilibrium dissociation constant (Kd) worked out at 0.019 nM.

For the origin of these results see patent publication US20190119389A1 (POTENZA THERAPEUTICS, published 2019).
